The target of data set [1] is CRD-BP WT (mouse) (UniProt O88477). Put plainly: EMSA. The settings on record: EMSA as in refs 21,22 (buffer not given; competitor preincubation 35 C), FP: binding buffer stock 10 mM Tris-HCl pH 7.4, 2.5 mM EDTA, 5% glycerol, 0.002% ….
Data set [2] has as its target CRD-BP D526E D526E (mouse) (UniProt O88477). Put plainly: EMSA. The settings on record: EMSA as in refs 21,22 (buffer not given; competitor preincubation 35 C); FP: binding buffer stock 10 mM Tris-HCl pH 7.4, 2.5 mM EDTA, 5% glycerol, 0.002% …. (In general: Mobility shift assays separate free from complexed probe on a gel.)
For the next data set, the target named is CRD-BP KH1 G212D (mouse) (UniProt O88477). The data set can be described thus: EMSA. To be noted: EMSA as in refs 21,22 (buffer not given; competitor preincubation 35 C); FP: binding buffer stock 10 mM Tris-HCl pH 7.4, 2.5 mM EDTA, 5% glycerol, 0.002% ….
Sequence of CRD-BP KH1 G212D (mouse) (O88477 whole entry G212D): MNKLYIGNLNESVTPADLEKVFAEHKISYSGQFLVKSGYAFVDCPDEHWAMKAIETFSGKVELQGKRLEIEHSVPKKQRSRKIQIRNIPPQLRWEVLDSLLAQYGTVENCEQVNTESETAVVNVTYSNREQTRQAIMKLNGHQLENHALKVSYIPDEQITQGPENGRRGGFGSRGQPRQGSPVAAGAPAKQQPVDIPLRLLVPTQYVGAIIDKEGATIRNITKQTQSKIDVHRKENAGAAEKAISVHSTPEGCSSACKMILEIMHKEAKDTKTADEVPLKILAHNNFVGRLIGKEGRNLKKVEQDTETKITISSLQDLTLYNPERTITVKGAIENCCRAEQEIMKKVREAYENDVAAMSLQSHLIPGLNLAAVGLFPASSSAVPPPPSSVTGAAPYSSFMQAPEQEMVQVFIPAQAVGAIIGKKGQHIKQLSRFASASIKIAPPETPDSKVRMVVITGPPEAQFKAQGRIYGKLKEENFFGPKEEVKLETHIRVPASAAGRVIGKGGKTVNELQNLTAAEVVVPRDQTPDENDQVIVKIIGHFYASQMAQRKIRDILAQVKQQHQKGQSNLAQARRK
A further data set addresses CRD-BP KH2 G293D (mouse) (UniProt O88477). Put plainly: EMSA. To be noted: EMSA as in refs 21,22 (buffer not given; competitor preincubation 35 C); FP: binding buffer stock 10 mM Tris-HCl pH 7.4, 2.5 mM EDTA, 5% glycerol, 0.002% ….
In the next data set the target is CRD-BP KH3 G422D (mouse) (UniProt O88477). The data set can be described thus: EMSA. The settings on record: EMSA as in refs 21,22 (buffer not given; competitor preincubation 35 C); FP: binding buffer stock 10 mM Tris-HCl pH 7.4, 2.5 mM EDTA, 5% glycerol, 0.002% ….
Sequence of CRD-BP KH3 G422D (mouse) (O88477 whole entry G422D): as the sequence (O88477 whole entry G212D) above, with D212G, G422D counted along it
In data set [3] the target is CRD-BP KH3-4 G422D;G504D (mouse) (UniProt O88477). The data set can be described thus: EMSA. To be noted: EMSA as in refs 21,22 (buffer not given; competitor preincubation 35 C); FP: binding buffer stock 10 mM Tris-HCl pH 7.4, 2.5 mM EDTA, 5% glycerol, 0.002% ….
Sequence of CRD-BP KH3-4 G422D;G504D (mouse) (O88477 whole entry G422D/G504D): as the sequence (O88477 whole entry G212D) above, with D212G, G422D, G504D counted along it
The next data set deals with CRD-BP KH4 G504D (mouse) (UniProt O88477). Put plainly: EMSA. The settings on record: EMSA as in refs 21,22 (buffer not given; competitor preincubation 35 C); FP: binding buffer stock 10 mM Tris-HCl pH 7.4, 2.5 mM EDTA, 5% glycerol, 0.002% ….
Sequence of CRD-BP KH4 G504D (mouse) (O88477 whole entry G504D): as the sequence (O88477 whole entry G212D) above, with D212G, G504D counted along it
A further data set has as its target CRD-BP Y5A Y5A (mouse) (UniProt O88477). Put plainly: EMSA. The settings on record: EMSA as in refs 21,22 (buffer not given; competitor preincubation 35 C); FP: binding buffer stock 10 mM Tris-HCl pH 7.4, 2.5 mM EDTA, 5% glycerol, 0.002% ….
Data set [4] has as its target CRD-BP WT (mouse) (UniProt O88477). Put plainly: competition. The settings on record: EMSA as in refs 21,22 (buffer not given; competitor preincubation 35 C); FP: binding buffer stock 10 mM Tris-HCl pH 7.4, 2.5 mM EDTA, 5% glycerol, 0.002% ….
The next data set concerns CRD-BP D526E (mouse). Put plainly: EMSA. The settings on record: EMSA as in refs 21,22 (buffer not given; competitor preincubation 35 C); FP: binding buffer stock 10 mM Tris-HCl pH 7.4, 2.5 mM EDTA, 5% glycerol, 0.002% ….
A further data set relates to CRD-BP KH3-4 (mouse). Put plainly: EMSA. The settings on record: EMSA as in refs 21,22 (buffer not given; competitor preincubation 35 C); FP: binding buffer stock 10 mM Tris-HCl pH 7.4, 2.5 mM EDTA, 5% glycerol, 0.002% ….
The subject of the next data set is CRD-BP Y5A (mouse). Put plainly: EMSA. The settings on record: EMSA as in refs 21,22 (buffer not given; competitor preincubation 35 C); FP: binding buffer stock 10 mM Tris-HCl pH 7.4, 2.5 mM EDTA, 5% glycerol, 0.002% ….

Where “and” joins values, the source holds several entries; their conditions need not be identical. Identical values can stand only once.

Sequence of CRD-BP WT (mouse) (O88477 whole entry): as the sequence (O88477 whole entry G212D) above, with D212G counted along it
Sequence of CRD-BP KH2 G293D (mouse) (O88477 whole entry G293D): as the sequence (O88477 whole entry G212D) above, with D212G, G293D counted along it
Sequence of CRD-BP Y5A Y5A (mouse) (O88477 other isoform, or with tags, fused parts or gaps): as the sequence (O88477 whole entry G212D) above, with Y5A, D212G counted along it
Sequence of CRD-BP D526E D526E (mouse) (O88477 whole entry D526E): as the sequence (O88477 whole entry G212D) above, with D212G, D526E counted along it

For “GGACACUUGUUAGCGAAUCCUCCCUGCACUGCAUUCGCACAAACUGCUUCCUUUCUUGAUUCGUAGAUUUAAUAACUUACCUGAAGGGGUUUUCUUGAUAAUUUUCCUUUAAUAUGAAAUUUUUUUUCAUGCUUUAUCAAUAGCCCAGGAUAUAUUUUAUUUUUAGAAUUUUGUGAAACAGACUUGUAUAUUCUAUUUUACAACUACAAAUGCCUCCAAAGUA [MITF RNA 1330-1550]”, in the data set with CRD-BP WT (mouse) [1], the binding result is given as “binds more weakly”.
Regarding “GGAUUGUACAAAUAAGUGUGCAGUAUCUGUGAACUGAAUUCACCACAGACUUUAGCUUUCUGAGCAAGAGGA [MITF RNA 1550-1619]”, the binding entry with CRD-BP WT (mouse) [1] is listed as “no binding”.
For “GGAUUGUACAAAUAAGUGUGCAGUAUCUGUGAACUGAAUUCACCACAGACUUUAGCUUUCUGAGCAAGAGGAUUUUGCGUCAGAGAAAUGUCUGUCCAUUUUUAUUCAGGGGAAACUUGAUU [MITF RNA 1550-1669]”, the binding entry in the data set with CRD-BP WT (mouse) [1] is given as “binds”.
Take “GGAUUGUACAAAUAAGUGUGCAGUAUCUGUGAACUGAAUUCACCACAGACUUUAGCUUUCUGAGCAAGAGGAUUUUGCGUCAGAGAAAUGUCUGUCCAUUUUUAUUCAGGGGAAACUUGAUUUGAGAUUUUUAUGCCUGUGACUUCCUUGGAAAUCAAA [MITF RNA 1550-1709]”: in the data set with CRD-BP WT (mouse) [1], the binding entry is “binds”.
For the substance “GGAUUGUACAAAUAAGUGUGCAGUAUCUGUGAACUGAAUUCACCACAGACUUUAGCUUUCUGAGCAAGAGGAUUUUGCGUCAGAGAAAUGUCUGUCCAUUUUUAUUCAGGGGAAACUUGAUUUGAGAUUUUUAUGCCUGUGACUUCCUUGGAAAUCAAAUGUAAAGUUUAAUUGAAAGAAUGUAAAGCAACCA [MITF RNA 1550-1740]”, the Kd in data set [2] is 91 nM; in data set [3] it was 155 nM; in the data set with CRD-BP WT (mouse) [1] it was 323 nM and 132 nM; with CRD-BP Y5A Y5A (mouse) it was 85 nM. For the same substance, the binding entry in the data set with CRD-BP KH1 G212D (mouse) is “binds”; with CRD-BP KH2 G293D (mouse), “no binding”; with CRD-BP KH3 G422D (mouse), “no binding”; with CRD-BP KH4 G504D (mouse), “no binding”; with CRD-BP WT (mouse) [1], “binds”; with CRD-BP WT (mouse) [4], “binds”.
Consider “GGCUGAAUUCACCACAGACUUUAGCUUUCUGAGCAAGAGGAUUUUGCGUCAGAGAAAUGUCUGUCCAUUUUUAUUCAGGGGAAACUUGAUUUGAGAUUUUUAUGCCUGUGACUUCCUUGGAAAUCAAAUGUAAAGUUUAAUUGAAAGAAUGUAAAGCAACCA [MITF RNA 1581-1740]”, for which, in the data set with CRD-BP WT (mouse) [1], the binding entry is “binds”.
Same read-out and setting: with “GGUUUGCGUCAGAGAAAUGUCUGUCCAUUUUUAUUCAGGGGAAACUUGAUUUGAGAUUUUUAUGCCUGUGACUUCCUUGGAAAUCAAAUGUAAAGUUUAAUUGAAAGAAUGUAAAGCAACCA [MITF RNA 1621-1740]” the entry was “binds”.
In the case of MITF RNA 1550-1740, the equilibrium dissociation constant (Kd) in the data set on CRD-BP D526E (mouse) was 91 nM; in the data set on CRD-BP KH3-4 (mouse), 155 nM; with CRD-BP WT (mouse) [1] (40 nM RNA, compared with deletion RNA), 323 nM; in the data set with CRD-BP WT (mouse) [1], 132 nM; in the data set with CRD-BP Y5A (mouse), 85 nM.
In the data set with CRD-BP WT (mouse) [1] (40 nM RNA), MITF RNA 1550-1740 (del1621-1669) had a Kd of 970 nM.

As usually defined, the Kd is the constant that tells how readily two partners part at equilibrium. A low value points to tighter binding.

Source of the values: article PMC5300761.
